Measurements taken from PMC6107761.

Experiments:
Settings in all cases: remark: other sources report otherwise
[1] = target: T1, human wild type calcium and integrin binding protein 2 (CIB2) (human), O75838; assay: native gel or EMSA; Ferguson plot: non-denaturing continuous gels at 10, 12, 15% acrylamide, BSA as standard; 20 μM CIB2 with EGTA, Mg2+ or Ca2+ + Mg2+, 1 mM DTT, room temperature
T1 chain: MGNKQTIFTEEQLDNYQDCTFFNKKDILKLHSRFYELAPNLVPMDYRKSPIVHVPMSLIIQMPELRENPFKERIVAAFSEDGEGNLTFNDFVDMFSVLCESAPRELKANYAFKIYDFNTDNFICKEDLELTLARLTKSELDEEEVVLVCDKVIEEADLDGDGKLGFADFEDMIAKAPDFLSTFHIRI

[2] = target: T1, human wild type calcium and integrin …; assay: dynamic light scattering; Zetasizer Nano-S, 37°C; samples immediately after SEC in 20 mM Tris-HCl pH 7.5, 150 mM KCl, 1 mM DTT with 3 mM EGTA or 2 mM EGTA + 3 mM Mg2+ or 3 mM Mg2+ + 2 mM Ca2+
[3] = target: T1, human wild type calcium and integrin …; assay: SEC; analytical SEC, Superose 12 10/300GL; 20 mM Tris pH 7.5, 150 mM KCl, 1 mM DTT with 3 mM EGTA or 2 mM EGTA + 3 mM Mg2+ or 3 mM Mg2+ + 2 mM Ca2+; WT 100 μM, E64D 70 μM; MW from a calibration plot

stoichiometry N [1]: 2
stoichiometry N [2]: 2
stoichiometry N [3]: 2
B1: human wild type calcium and integrin binding protein 2 (CIB2), O75838-1 1-187 (natural protein)
chain: MGNKQTIFTEEQLDNYQDCTFFNKKDILKLHSRFYELAPNLVPMDYRKSPIVHVPMSLIIQMPELRENPFKERIVAAFSEDGEGNLTFNDFVDMFSVLCESAPRELKANYAFKIYDFNTDNFICKEDLELTLARLTKSELDEEEVVLVCDKVIEEADLDGDGKLGFADFEDMIAKAPDFLSTFHIRI
